We go through three molecules from patent US20060110388A1 (APPLIED MOLECULAR EVOLUTION, published 2006).

For assay [1], the target named is T1, β Amyloid peptide 1-40 (human, UniProt P05067 672-711).
T1 construct: domain: β Amyloid peptide 1-40; Biotinylated peptide 1-40 (Biosource) on avidin Sepharose only captured free antibody in KinExA; also called Aβ 1-40; human Aβ (1-40)
Description: KinExA, mAb. Here is the method:
(§1) Typical 1× concentrations were 10 pM of antibody active sites (0.75 ng/mL) and an upper antigen concentration of 100 pM (0.43 ng/mL). The samples were then allowed to equilibrate for 24-72 hours at room temperature. A KinExA™ instrument (Sapidyne) and standard KD run file were then used to determine the KD of the system. Briefly, the KinExA™ flow cell was charged with the β Amyloid peptide coated beads and washed with PBSA. For the first sample, free antibody in solution was captured by the beads washed with PBSA and detected using 1:250 Goat anti-human Cy5 (Jackson Immunochemicals) in PBSA. The flow cell was then flushed, re-charged with beads and the next sample analyzed. The process was repeated until all 12 samples were analyzed.

For assay [2], the target named is T1, β Amyloid peptide 1-40. Kind of assay: KinExA, mAb. Here is the method:
(§2) For KinExA™ kₒₙ and koff measurements, antigen and antibody were prepared as described above. Antigen and antibody samples at 2× active concentration were prepared in PBSA with 0.2% BSA. Samples were mixed 1:1 and the timing for the experiment started. Typical 1× concentrations were 1 nM antibody active site concentration ([…]) and 2 nM antigen (8.6 ng/mL). A KinExA™ instrument (Sapidyne) and a kineticsdirect run file were used to follow the reaction. Time for each measurement was determined using the manufacturer's instructions. Free antibody remaining in the reaction was captured using β amyloid coated beads packed into the flow cell washed with PBSA and detected at each time point using 1:250 Goat anti-human Cy5 (Jackson) in PBSA. The flow cell was then flushed and recharged with beads for the next measurement, the process continued until a complete decay curve obtained. The data was analyzed using the KinExA™ Inject software.
(§3) Association rate constants (kₒₙ) of m266 and antibodies of the present invention with Aβ were determined by KinExA™, using methods as described above in Example 1. The results of two separate kₒₙ determinations by KinExA™, in which separate preparations of antibodies were used, are provided in Tables 7 and 8.
This is another data set of the same source.

Assay [3] concerns the target T1, β Amyloid peptide 1-40. Kind of assay: BIAcore; against m266. The protocol:
(§4) BIAcore™ is an automated biosensor system that measures molecular interactions (Karlsson, et al. (1991) J. Immunol. Methods 145: 229-240). BIAcore™ analyses described herein were carried out at 25° C. In these experiments, antibody was immobilized at low density on a BIAcore™ CM5 or B1 chip. For the m266 antibody goat anti-mouse Fc (Jackson Immunoresearch) immobilized on CM5 in flow cell 2 was used for measuring binding constants. Goat anti-mouse was used as control antibody in flow cell 1. For the humanized antibodies, protein A or protein A/G was immobilized via amine coupling to flow cells 1 and 2 of a B1 or CM5 sensor chip.
(§5) Antibody was then captured only to flow cell 2 at desired levels (usually a 10-60 second injection of antibody) and allowed to stabilize for 5 minutes. For these experiments, a fresh aliquot of Aβ 1-40 was thawed and then diluted 1:10 in HBS-EP running buffer. The 1:10 dilution was used to make up a 200 nM Aβ solution which was serially diluted (1:2 dilutions) to a lowest concentration of 6.25 nM. Each concentration was injected over the surface for 5 minutes at a flow rate of 50 μl/min (250 μl total). The Aβ and antibody were eluted from both flow cells with a 40s injection of glycine pH 1.5. The signal is allowed to stabilize for 2 minutes before the next cycle. The data from flow cell 1 is subtracted from flow cell 2 to account for any bulk shifts due to buffer differences or non-specific binding to the sensor chip or Protein A. The various concentrations were injected randomly and each concentration was run in duplicate. Two control runs of buffer only were used to control for any dissociation of antibody from the capture surface. The data was analyzed using the Biaevalution™ software. A 1:1 model with mass transfer and a local Rmax was used as the best fit for the data.
Concentrations of human Aβ (1-40) from 200 nM to 1.6 nM in 2-fold serial dilution were used to obtain on-rate constant. The upper half of Table 6 represents determinations made with a first set of antibody preparations, while the lower half represents determinations made with a second set of antibody preparations

Assay [4] has as its target T1, β Amyloid peptide 1-40. Kind of assay: KinExA, mAb; against m266. Here is the method: as §1
Assay [5] addresses T1, β Amyloid peptide 1-40. Kind of assay: KinExA, mAb; against m266. The protocol:
as §2, §3
This is another data set of the same source.

In assay [6] the target is T1, β Amyloid peptide 1-40. Description: KinExA, mAb, equilibration 16 h. Here is the method:
as §1, with “The samples were then allowed to equilibrate for 24-72 hours at room temperature.” left out
as §2

Assay [7] deals with T1, β Amyloid peptide 1-40. Description: BIAcore, mAb captured, Aβ 1-40 injected, first set of preparations. The protocol:
as §4, §5
Concentrations of human Aβ (1-40) from 200 nM to 1.6 nM in 2-fold serial dilution were used to obtain on-rate constant. […]

Assay [8] deals with T1, β Amyloid peptide 1-40. Description: KinExA, mAb, single experiment. Here is the method: as §1
Assay [9] has as its target T1, β Amyloid peptide 1-40. Kind of assay: KinExA, mAb, single experiment. The protocol:
as §2, §3
This is another data set of the same source.

Assay [10] has as its target T1, β Amyloid peptide 1-40. Kind of assay: KinExA, mAb, single experiment. Here is the method: as §2, §3
The source holds these as a separate data set.

Assay [11] deals with T1, β Amyloid peptide 1-40. Description: KinExA, mAb, equilibration 24 h. Here is the method: as §1, §2
For assay [12], the target named is T1, β Amyloid peptide 1-40. Kind of assay: KinExA, mAb, average of the experiments. The protocol: as §1
Assay [13] has as its target T1, β Amyloid peptide 1-40. Description: KinExA, mAb, average of the experiments. The protocol:
as §2, §3
The source holds these as a separate data set.

Assay [14] addresses T1, β Amyloid peptide 1-40. Description: KinExA, mAb, average of the experiments. The protocol:
as §2, §3
This is another data set of the same source.

Assay [15] concerns the target T1, β Amyloid peptide 1-40. Kind of assay: KinExA, mAb, single experiment, separate antigen preparation. Here is the method: as §2
(§6) Association rate constants (kₒₙ) of m266 and antibodies of the present invention with Aβ were determined by KinExA™, using methods as described above in Example 1. […]
(§7) ^aNumbers in bold are the averages calculated from individual experiments. ^bA separate preparation of antibodies was used for these experiments. ^cA separate preparation of antigen was used for these experiments.

Assay [16] concerns the target T1, β Amyloid peptide 1-40. Kind of assay: KinExA, mAb, single experiment, separate antibody preparation. Here is the method: as §2, §6, §7
Assay [17] addresses T1, β Amyloid peptide 1-40. Description: KinExA, mAb, single experiment, separate antibody and antigen preparations. The protocol:
as §2, §6, §7

The target of assay [18] is T1, β Amyloid peptide 1-40. Kind of assay: BIAcore; m266 is the reference.
The target of assay [19] is T1, β Amyloid peptide 1-40. Kind of assay: KinExA, mAb; m266 is the reference.
For assay [20], the target named is T1, β Amyloid peptide 1-40. Kind of assay: KinExA, mAb; m266 is the reference. The protocol: as §2, §3
This is another data set of the same source.

The target in assay [21] is T1, β Amyloid peptide 1-40. Description: BIAcore, mAb captured by anti-mouse Fc, Aβ 1-40 injected, first set of preparations. The protocol: as §4
Antibody was then captured only to flow cell 2 at desired levels (usually a 10-60 second injection of antibody) and allowed to stabilize for 5 minutes. For these experiments, a fresh aliquot of Aβ 1-40 was thawed and then diluted 1:10 in HBS-EP running buffer. The 1:10 dilution was used to make up a 200 nM Aβ solution which was serially diluted (1:2 dilutions) to a lowest concentration of 6.25 nM. Each concentration was injected over the surface for 5 minutes at a flow rate of 50 μl/min (250 μl total). The Aβ and antibody were eluted from both flow cells with a 40s injection of glycine pH 1.5. The signal is allowed to stabilize for 2 minutes before the next cycle. […] The data was analyzed using the Biaevalution™ software. […]

Positions count from the first letter of the chain named. Values joined by “and” are separate entries in the source; they are usually repeats but may differ in a detail not shown here. Equal entries are not always repeated.

T1 sequence (P05067 672-711 limits assumed): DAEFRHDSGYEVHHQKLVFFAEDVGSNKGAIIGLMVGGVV

B1: 1B7 monoclonal antibody (IgG1) (antibody, V domains shown)
VH: EVQLVESGGGLVKPGGSLRLSCAASGFTFSRYSMSWVRQAPGKGLEWVGQINSRGNSTYYPDTVKGRFTISRDDSKNTLYLQMNSLKTEDTAVYYCTTGDFWGQGTLVTVSS
VL: DIVMTQTPLSLSVTPGQPASISCRSSQSLIYSDGNAYLHWYLQKPGQSPQLLIYKVSNRFSGVPDRFSGSGSGTDFTLKISRVEAEDVGVYYCSQSTHSPWTFGGGTKVEIK
In the case of B1, the Kd with β Amyloid peptide 1-40 [1] is 0.674 nM; with β Amyloid peptide 1-40 [6], 0.122 nM. For the same molecule, the kon is 630000 M⁻¹ s⁻¹ in the assay with β Amyloid peptide 1-40 [2], 1.76e+06 M⁻¹ s⁻¹ with β Amyloid peptide 1-40 [6] and 590000 M⁻¹ s⁻¹ in the assay with β Amyloid peptide 1-40 [7]. In the assay with β Amyloid peptide 1-40 [3], the “Fold Increase (kon)” value is 5 fold. In the assay with β Amyloid peptide 1-40 [4], the “Fold increase in affinity” value amounted to 0.11 fold. Moreover, the “Fold increase in kon” value with β Amyloid peptide 1-40 [5] was determined as 3 fold. The same molecule yielded a koff in the assay with β Amyloid peptide 1-40 [6] of 0.000214 s⁻¹.

B2: 1A1 monoclonal antibody (IgG1) (antibody, V domains shown)
VH: B1 VH with F27Y, S53I, S57N
VL: B1 VL with R24S, S94T
On to B2, for which, in the assay with β Amyloid peptide 1-40 [3], the “Fold Increase (kon)” value is 3 fold. Also, the “Fold increase in affinity” value with β Amyloid peptide 1-40 [4] stood at 17 fold. Further, the “Fold increase in kon” value in the assay with β Amyloid peptide 1-40 [5] worked out at 2 fold. In addition, the Kd with β Amyloid peptide 1-40 [8] was 0.0032 nM and 0.0057 nM; in the assay with β Amyloid peptide 1-40 [11] it was 0.0012 nM; with β Amyloid peptide 1-40 [12], 0.0045 nM. Also, the on-rate constant (kon) is 580000 M⁻¹ s⁻¹ and 550000 M⁻¹ s⁻¹ and 390000 M⁻¹ s⁻¹ in the assay with β Amyloid peptide 1-40 [9]; 1.06e+06 M⁻¹ s⁻¹ and 954000 M⁻¹ s⁻¹ and 912000 M⁻¹ s⁻¹ and 883000 M⁻¹ s⁻¹ with β Amyloid peptide 1-40 [10]; 880000 M⁻¹ s⁻¹ in the assay with β Amyloid peptide 1-40 [11]; 510000 M⁻¹ s⁻¹ in the assay with β Amyloid peptide 1-40 [13]; 913000 M⁻¹ s⁻¹ with β Amyloid peptide 1-40 [14]; 976000 M⁻¹ s⁻¹ with β Amyloid peptide 1-40 [15]. Also, the results for the kon with β Amyloid peptide 1-40 [16], in the assay with β Amyloid peptide 1-40 [7] and with β Amyloid peptide 1-40 [17] were 762000 M⁻¹ s⁻¹, 390000 M⁻¹ s⁻¹ and 851000 M⁻¹ s⁻¹, respectively. For the same molecule, in the assay with β Amyloid peptide 1-40 [11], the koff turned out to be 1.1e-06 s⁻¹.

B3: m266 monoclonal antibody (antibody, V domains shown)
VH: EVKLVESGGGLVQPGGSLKLSCAVSGFTFSRYSMSWVRQTPEKRLELVAQINSVGNSTYYPDTVKGRFTISRDNAEYTLSLQMSGLRSDDTATYYCASGDYWGQGTTLTVSS
VL: DVVMTQTPLSLPVSLGDQASISCRSSQSLIYSDGNAYLHWFLQKPGQSPKLLIYKVSNRFSGVPDRFSGSGSGTDFTLKISRVETEDLGVYFCSQSTHVPWTFGGGTKLEIK
modifications: CDR H2 N-glycosylated at the Asn-Ser-Thr sequence
notes: Captured by goat anti-mouse Fc in BIAcore (mouse Fc); also called mouse antibody 266
With B3, the dissociation constant Kd with β Amyloid peptide 1-40 [8] is 0.0675 nM and 0.0854 nM; with β Amyloid peptide 1-40 [6], 0.0765 nM; in the assay with β Amyloid peptide 1-40 [12], 0.0765 nM. Moreover, in the assay with β Amyloid peptide 1-40 [18], the “Fold Increase (kon)” value was found to be 1 fold. Besides, the kon with β Amyloid peptide 1-40 [9] was 210000 M⁻¹ s⁻¹ and 240000 M⁻¹ s⁻¹; with β Amyloid peptide 1-40 [10], 129000 M⁻¹ s⁻¹ and 127000 M⁻¹ s⁻¹ and 88000 M⁻¹ s⁻¹; with β Amyloid peptide 1-40 [6] it was 88000 M⁻¹ s⁻¹; with β Amyloid peptide 1-40 [13], 230000 M⁻¹ s⁻¹; with β Amyloid peptide 1-40 [14] it was 154000 M⁻¹ s⁻¹; with β Amyloid peptide 1-40 [15], 157000 M⁻¹ s⁻¹. The kon in the assay with β Amyloid peptide 1-40 [16] was found to be 186000 M⁻¹ s⁻¹; with β Amyloid peptide 1-40 [17], 240000 M⁻¹ s⁻¹; with β Amyloid peptide 1-40 [21] it was 130000 M⁻¹ s⁻¹. The koff in the assay with β Amyloid peptide 1-40 [6] is 6.73e-06 s⁻¹. Moreover, in the assay with β Amyloid peptide 1-40 [19], the “Fold increase in affinity” value stood at 1 fold. Moreover, the “Fold increase in kon” value in the assay with β Amyloid peptide 1-40 [20] stood at 1 fold.
